# Numbering of substitutions follows the chain as printed. Numbers in names are those of the source.
# B1: Cg10062: Tautomerase superfamily enzyme from Corynebacterium glutamicum, SEQ ID NO: 21; His6-tagged form SEQ ID NO: 59 (protein)
# chain: PTYTCWSQRIRISREAKQRIAEAITDAHHELAHAPKYLVQVIFNEVEPDSYFIAAQSASENHIWVQATIRSGRTEKQKEELLLRLTQEIALILGIPNEEVWVYITEIPGSNMTEYGRLLMEPGEEEKWFNSLPEGLRERLTELEGSSE
# modifications: Cg10062 from Corynebacterium glutamicum codon-optimized for Escherichia coli
# B2: R73A: Cg10062 variant with R73A mutation, SEQ ID NO: 28 and 66 (protein)
# chain: B1 chain with R73A
# modifications: Cg10062(R73A) from Corynebacterium glutamicum codon-optimized for Escherichia coli
# B3: R70K: Cg10062 variant with R70K mutation, SEQ ID NO: 27 and 65 (protein)
# chain: B1 chain with R70K
# modifications: Cg10062(R70K) from Corynebacterium glutamicum codon-optimized for Escherichia coli
# B4: E114A: Cg10062 variant with E114A mutation, SEQ ID NO: 32 and 70 (protein)
# chain: B1 chain with E114A
# modifications: Cg10062(E114A) from Corynebacterium glutamicum codon-optimized for Escherichia coli
# B5: Y103A: Cg10062 variant with Y103A mutation, SEQ ID NO: 30 and 68 (protein)
# chain: B1 chain with Y103A
# modifications: Cg10062(Y103A) from Corynebacterium glutamicum codon-optimized for Escherichia coli
# B6: Cg10062(E114N): Novel hydratase-only Cg10062 variant with E114N mutation, SEQ ID NO: 24 and 62 (protein)
# chain: B1 chain with E114N
# modifications: Cg10062(E114N) from Corynebacterium glutamicum codon-optimized for Escherichia coli
# B7: Y103F: Cg10062 variant with Y103F mutation, SEQ ID NO: 31 and 69 (protein)
# chain: B1 chain with Y103F
# modifications: Cg10062(Y103F) from Corynebacterium glutamicum codon-optimized for Escherichia coli
# B8: R70A: Cg10062 variant with R70A mutation, SEQ ID NO: 26 and 64 (protein)
# chain: B1 chain with R70A
# modifications: Cg10062(R70A) from Corynebacterium glutamicum codon-optimized for Escherichia coli
# B9: H28A: Cg10062 variant with H28A mutation, SEQ ID NO: 25 and 63 (protein)
# chain: B1 chain with H28A
# modifications: Cg10062(H28A) from Corynebacterium glutamicum codon-optimized for Escherichia coli
# B10: Cg10062(E114D-Y103F): Cg10062 double variant E114D-Y103F, SEQ ID NO: 33 and 71 (protein)
# chain: B1 chain with Y103F, E114D
# modifications: Cg10062(E114D-Y103F) from Corynebacterium glutamicum codon-optimized for Escherichia coli
# B11: Corynebacterium glutamicum Cg10062 variant E114Q, SEQ ID NO: 60 (Corynebacterium glutamicum ATCC 13032; E115Q) (protein)
# chain: PTYTCWSQRIRISREAKQRIAEAITDAHHELAHAPKYLVQVIFNEVEPDSYFIAAQSASENHIWVQATIRSGRTEKQKEELLLRLTQEIALILGIPNEEVWVYITEIPGSNMTQYGRLLMEPGEEEKWFNSLPEGLRERLTELEGSSEENLYFQGLEHHHHHH
# B12: Corynebacterium glutamicum Cg10062 variant E114D, SEQ ID NO: 61 (Corynebacterium glutamicum ATCC 13032; E115D) (protein)
# chain: B11 chain with Q114D
# B13: Corynebacterium glutamicum Cg10062 variant E114D-Y103F, SEQ ID NO: 71 (Corynebacterium glutamicum ATCC 13032; E115D/Y104F) (protein)
# chain: B11 chain with Y103F, Q114D
# System: not listed separately
# Assay: Coupled enzyme assay (ADH, with and without MSAD): hydratase and hydratase/decarboxylase activity and product profile of Cg10062 and variants
# Format: biochemical
# Conditions: ACA 0.5 mM, pH 8; enzyme final concentration differs per variant (0.025-1.50 mg mL^−1), rates not directly comparable
# Procedure: (§1) Steady-state kinetics were carried out using a Molecular Devices SpectraMax iD3 multi-mode microplate reader and Shimadzu UV2600 spectrophotometer. All assays were carried out in triplicate at 25° C. in 100 mM sodium phosphate pH 8.0 with a final volume of 200 μL, unless otherwise specified. The reduction of acetaldehyde by NADH-dependent alcohol dehydrogenase (ADH) was monitored by following the oxidation of NADH at 340 nm (ε=6220 M^−1 cm^−1).
# (§2) All stock solutions, except ADH, required for the kinetics assays used for determining hydratase and hydratase/decarboxylase activities were prepared in 100 mM sodium phosphate pH 8.0. […] Stock solutions of ADH were prepared using deionized water, as recommended by the manufacturer. […] The final pH of each assay was 8.
# (§3) The amount of enzyme used in each assay was varied in order to observe measurable activity. Thus, the rates obtained from this experiment were not used directly to compare the enzyme activity. These activities were only used for establishing the product profile of each enzyme. The ratios of MSA and acetaldehyde formed by each enzyme was determined by the coupled enzyme assay (FIG. 13), using the differences in rates in the presence and absence of MSAD (Table 10). […] All other components used for steady-state kinetics were identical to those used in the initial screening assays.
Molecule,Rate in the absence of MSAD,Rate in the presence of MSAD
B1,120 µM/min,146 µM/min
B2,no activity,no activity
B3,no activity,no activity
B4,11 µM/min,15 µM/min
B5,16 µM/min,38 µM/min
B6,no activity,67 µM/min
B7,43 µM/min,65 µM/min
B8,no activity,no activity
B9,4.5 µM/min,12 µM/min
B10,no activity,39 µM/min

# Same assay, conditions: from Cg10062 activity in the presence and absence of MSAD; * from non-enzymatic decarboxylation of malonate semialdehyde
row,Molecule,Product Ratio (%) acetaldehyde
1,B1,81%
2,B6,<1* %
3,B10,<1* %

# Same assay, conditions: from Cg10062 activity in the presence and absence of MSAD; ACA substrate, pH 8.0, 25° C.
row,Molecule,Product Ratio (%) malonate semialdehyde [%]
1,B1,19
2,B6,>99
3,B10,>99

# Same assay, conditions: in words
row,Molecule,product of ACA hydration
1,B6,produces only malonic semialdehyde

# System: not given
# Assay: not given
# Conditions: background statement; cited from earlier work
Molecule,acetaldehyde in product mixture from ACA [%],malonate semialdehyde in product mixture from ACA [%]
B1,75,25

# Substrate: C#CC(=O)O
# Assay: purified protein, by the assay type
# Format: biochemical, Corynebacterium glutamicum
# Conditions: other: ACA, 100 mM sodium phosphate pH 8.0, 25 °C
# Procedure: as §1, §2, §3
Molecule,Km [µM],kcat [s⁻¹],kcat/Km [M⁻¹ s⁻¹]
B11,64 ± 12,0.66 ± 0.04,10800 ± 2100
B12,557 ± 62,1.12 ± 0.05,2000 ± 200
B13,72 ± 7,0.34 ± 0.01,4700 ± 500

# Source: US20240043883A1 (Board of Trustees of Michigan State University, priority 2021, published 2024)
